Numbering of substitutions follows the chain as printed. Ends that are not written are not given here.
T1: IL-1-R intracellular ligand protein encoded by clone 14w (interaction trap prey) (human, UniProt P17655 450-700)
T1 construct: Prey fusion expressed from pJG4-5 in yeast
T1 sequence: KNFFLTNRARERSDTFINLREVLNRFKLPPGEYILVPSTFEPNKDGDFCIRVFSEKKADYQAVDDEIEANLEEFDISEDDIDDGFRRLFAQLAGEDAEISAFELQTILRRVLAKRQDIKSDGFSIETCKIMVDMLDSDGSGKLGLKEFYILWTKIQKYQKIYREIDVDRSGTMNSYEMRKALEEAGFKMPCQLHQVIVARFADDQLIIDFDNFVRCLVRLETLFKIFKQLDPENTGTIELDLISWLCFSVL

T2: IL-1-R intracellular ligand protein encoded by clone 19w (interaction trap prey) (human, UniProt Q92626 1304-1479)
T2 construct: Prey fusion expressed from pJG4-5 in yeast; believed to be a partial clone of a longer protein
T2 sequence: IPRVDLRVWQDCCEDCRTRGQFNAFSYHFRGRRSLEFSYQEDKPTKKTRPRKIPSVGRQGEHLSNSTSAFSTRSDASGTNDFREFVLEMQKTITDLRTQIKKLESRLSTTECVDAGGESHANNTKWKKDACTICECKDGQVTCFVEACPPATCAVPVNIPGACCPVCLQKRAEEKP

B1: IL-1-R intracellular ligand protein encoded by clone 31w (interaction trap prey) (other, not shown: large carriers)
chain: KKGGKTEQDGYQKPTNKHFTQSPKKSVADLLGSFEGKRRLLLITAPKAENNMYVQQRDEYLESFCKMATRKISVITIFGPVNNSTMKIDHFQLDNEKPMRVVDDEDLVDQRLISELRKEYGMTYNDFFMVLTDVDLRVKQYYEVPITMKSVFDLIDTFQSRIKDMEKQKKEGIVCKEEVGGVLELFPINGSSVVEREDVPAHLVKDIRNYFQVSPEYFSMLLVGKDGNVKSWYPSPMWSMVIVYDLIDSMQLRRQEMAIQQSLGMRCQKMSMQAMVTIVTTKDTRMVTRMTTVIMRVITMDTLTEQKYVTLDSASFLCSC
notes: Prey fusion expressed from pJG4-5 in yeast; believed to be a partial clone of a longer protein
B2: IL-1 receptor p80 (type I) amino acids 477 to 527, wild-type bait from plasmid EG202-IL1R (477-527) (receptor, human, UniProt P14778 494-544, looked up)
chain: QDYEKMPESIKFIKQKHGAIRWSGDFTQGPQSAKTRFWKNVRYHMPVQRRS
modifications: also: fused to LexA (pEG202 bait), residues not given here
notes: range 477-527; positions may be shifted against the UniProt entry; also called WT; original bait; not shown: LexA, fusion partner of baits made in vector pEG202
B3: IL-1 receptor p80 (477-527) mutant bait W514A (receptor, human, UniProt P14778 494-544, looked up)
chain: B2 chain with W38A
modifications: also: fused to LexA (pEG202 bait), residues not given here
notes: range 477-527; not shown: LexA, fusion partner of baits made in vector pEG202
B4: IL-1 receptor p80 (477-527) mutant bait Y519S (receptor, human, UniProt P14778 494-544, looked up)
chain: B2 chain with Y43S
modifications: also: fused to LexA (pEG202 bait), residues not given here
notes: as for B3
B5: IL-1 receptor p80 (477-527) mutant bait K515R (receptor)
chain: B2 chain with K39R
modifications: also: fused to LexA (pEG202 bait), residues not given here
B6: IL-1 receptor p80 (477-527) mutant bait R518K (receptor, human, UniProt P14778 494-544, looked up)
chain: B2 chain with R42K
modifications: also: fused to LexA (pEG202 bait), residues not given here
notes: as for B3
B7: bicoid (unrelated bait) (other, UniProt P09081 2-160, looked up)
chain: AQPPPDQNFYHHPLPHTHTHPHPHSHPHPHSHPHPHHQHPQLQLPPQFRNPFDLLFDERTGAINYNYIRPYLPNQMPKPDVFPSEELPDSLVMRRPRRTRTTFTSSQIAELEQHFLQGRYLTAPRLADLSAKLALGTAQVKIWFKNRRRRHKIQSDQHK

Legend:
[1] = biological target: B7; test: yeast interaction trap, bait specificity test
Excerpt: (§1) A WI38 cDNA library was transformed into the reporter strain (EGY48/pSH18-34) containing the bait plasmid EG202-IL1R (477–527). 1.3 million primary transformants were harvested and 7 million colonies were screened. 192 galactose-dependent colonies were isolated. Among these, 51 clones were bait specific (i.e., interacted specifically with the original bait, but not with an unrelated bait, bicoid). These clones were then subjected to DNA sequence analysis. Clones 19w was isolated 6, times, clone 31w twice and clone 14w once.

[2] = biological target: B5; test: yeast interaction trap, LacZ blueness on plates
Procedure: (§2) Mutations that abolish IL-1R signaling ere introduced into the original bait plasmid, EG202-IL-1R (477–527) (with following amino acid substitutions: F513A, W514A, K515R, R518K, and Y519S) and the ability of the IL-1R intracellular ligands to interact with these mutant proteins was tested in the interaction trap. EGY48 carrying pSH18-34 (lexAop-LacZ) were cotransformed with two plasmids: one carrying 14w, 19w or 31w; the other with bait, EG202-IL1R (477–527), either wild-type or one of the mutants, transformants were then streaked onto CM ura⁻his⁻trp⁻ plates containing galactose/raffinose and β-gal. The strength of interaction (as indicated by the number of "+" signs) was judged by the blueness in the plates (indicator of LacZ expression).

[3] = biological target: B2; test: yeast interaction trap, LacZ blueness on plates
Procedure: as §2

[4] = biological target: T1, IL-1-R intracellular ligand protein …; test: yeast interaction trap, LacZ blueness on plates
Procedure: as §2

[5] = biological target: T2, IL-1-R intracellular ligand protein …; test: yeast interaction trap, LacZ blueness on plates
Procedure: as §2

[6] = biological target: T1, IL-1-R intracellular ligand protein …; test: yeast interaction trap, bait specificity test
Excerpt: as §1

[7] = biological target: T2, IL-1-R intracellular ligand protein …; test: yeast interaction trap, bait specificity test
Excerpt: as §1

Binder | binding result [4] | binding result [5] | also measured
B1 |  |  | binding result [1]: no binding; binding result [2]: binds; binding result [3]: binds
B2 | binds | binds | 
B3 | binds | binds | 
B4 | binds |  | 
B5 | binds | binds | 
B6 | binds |  | 
B7 |  |  | binding result [6]: no binding; binding result [7]: no binding
